Reference: the supplement of paper PMC9428881
± gives the standard error.

Test: background-corrected fluorescence of 3'-dye-labeled ssDNA relative to brightest sequence (3'-GCGCG) (fraction); higher = brighter dye fluorescence (less quenching)
Procedure: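 Single-stranded DNA is synthesized in situ on glass microarrays by 5'->3' photolithographic synthesis, with a Cy3 or Cy5 phosphoramidite coupled at the 3' end next to all 1024 permuted pentamers P1-P5. The construct is 5'-T5-(ACGT minus P5..P1 trinucleotides)-T15-P5P4P3P2P1-dye-3'; the dye is a 3' terminal modification, not part of the sequence. Arrays were scanned at 532 nm (Cy3) or 635 nm (Cy5), background from unlabeled oligos was subtracted, and values are averaged over 10 replicate features per array and at least 3 independent syntheses.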

Sequence	background-corrected fluorescence (dye: Cy3 (3' terminal))	background-corrected fluorescence (dye: Cy5 (3' terminal))
TTTTTTCATGCGCAGCATCATTTTTTTTTTTTTTTGATTG [GTTAG]	0.543 ± 0.0077	0.355 ± 0.024
TTTTTGCATGATCATGCGCATTTTTTTTTTTTTTTTCGAT [TAGCT]	0.64 ± 0.011	0.441 ± 0.022
TTTTTGCATCATGCTCATGCTTTTTTTTTTTTTTTTGAGA [AGAGT]	0.679 ± 0.038	0.593 ± 0.044
TTTTTGCATCATCATGCGCATTTTTTTTTTTTTTTTGGAT [TAGGT]	0.617 ± 0.023	0.458 ± 0.036
TTTTTGCAGCATCATGAGCATTTTTTTTTTTTTTTTTGCT [TCGTT]	0.482 ± 0.014	0.361 ± 0.019
TTTTTTGCGCATCAGCATGCTTTTTTTTTTTTTTTATGTA	0.549 ± 0.017	0.47 ± 0.039
TTTTTTGCGCATGATGCTGCTTTTTTTTTTTTTTTATCAA [AACTA]	0.522 ± 0.012	0.411 ± 0.035
TTTTTTGATGATGATCATGCTTTTTTTTTTTTTTTCCCGA [AGCCC]	0.629 ± 0.051	0.554 ± 0.034
TTTTTGCATGCTGCTGATGCTTTTTTTTTTTTTTTTAACA [ACAAT]	0.557 ± 0.022	0.405 ± 0.033
TTTTTTGATGAGCAGCATGCTTTTTTTTTTTTTTTCCTTA [ATTCC]	0.513 ± 0.023	0.369 ± 0.029
TTTTTTCATGATGCGCATGATTTTTTTTTTTTTTTGCATC [CTACG]	0.441 ± 0.025	0.288 ± 0.026
TTTTTTGCGCATCATCATCATTTTTTTTTTTTTTTATGGG [GGGTA]	0.661 ± 0.035	0.548 ± 0.037
TTTTTTCATCATCAGCAGCATTTTTTTTTTTTTTTGGGTT	0.598 ± 0.011	0.489 ± 0.031
TTTTTGCATGCTCAGCAGCATTTTTTTTTTTTTTTTAGTT [TTGAT]	0.592 ± 0.023	0.411 ± 0.032
TTTTTGCATGAGCAGCAGCATTTTTTTTTTTTTTTTCTTT	0.504 ± 0.016	0.353 ± 0.032
TTTTTGCATGCTCATCATCATTTTTTTTTTTTTTTTAGGG [GGGAT]	0.653 ± 0.032	0.55 ± 0.037
TTTTTTGATGATGCTGCTGCTTTTTTTTTTTTTTTCCAAA [AAACC]	0.559 ± 0.025	0.445 ± 0.051

Sequence	background-corrected fluorescence (dye: Cy3 (3' terminal))	background-corrected fluorescence (dye: Cy5 (3' terminal))
TTTTTGCATGCTGAGCATGATTTTTTTTTTTTTTTTACTC [CTCAT]	0.385 ± 0.03	0.273 ± 0.018
TTTTTTGATGCTGAGCAGCATTTTTTTTTTTTTTTCACTT	0.498 ± 0.016	0.351 ± 0.022
TTTTTGCAGCATGCGCAGCATTTTTTTTTTTTTTTTTATT	0.5242 ± 0.0046	0.403 ± 0.029
TTTTTTGCTGCTGATGCTCATTTTTTTTTTTTTTTAACAG [GACAA]	0.576 ± 0.02	0.421 ± 0.019
TTTTTGCATGATGATGAGCATTTTTTTTTTTTTTTTCCCT	0.472 ± 0.027	0.317 ± 0.026
TTTTTTCATGCTCATGCTGATTTTTTTTTTTTTTTGAGAC [CAGAG]	0.476 ± 0.015	0.357 ± 0.018
TTTTTTCATGCTCAGCATCATTTTTTTTTTTTTTTGAGTG [GTGAG]	0.578 ± 0.031	0.445 ± 0.054
TTTTTGCATGCGCAGCAGCATTTTTTTTTTTTTTTTATTT	0.539 ± 0.04	0.381 ± 0.021
TTTTTTGCTGCTGCGCATGATTTTTTTTTTTTTTTAAATC [CTAAA]	0.439 ± 0.019	0.306 ± 0.019
TTTTTGCATGAGCAGCATGCTTTTTTTTTTTTTTTTCTTA [ATTCT]	0.5004 ± 0.0042	0.373 ± 0.022
TTTTTGCATCATGCTCATCATTTTTTTTTTTTTTTTGAGG [GGAGT]	0.67 ± 0.013	0.529 ± 0.043
TTTTTGCATGATCATCAGCATTTTTTTTTTTTTTTTCGGT [TGGCT]	0.66 ± 0.028	0.513 ± 0.035
TTTTTGCATGAGCATGAGCATTTTTTTTTTTTTTTTCTCT	0.464 ± 0.014	0.332 ± 0.024
TTTTTGCAGCATGATGATGCTTTTTTTTTTTTTTTTTCCA [ACCTT]	0.453 ± 0.026	0.35 ± 0.028
TTTTTTCATGCTGATGATCATTTTTTTTTTTTTTTGACCG [GCCAG]	0.524 ± 0.032	0.428 ± 0.043
TTTTTTGCTGAGCAGCAGCATTTTTTTTTTTTTTTACTTT [TTTCA]	0.519 ± 0.022	0.37 ± 0.022
